This experiment addresses anti-VEEV human IgG1 antibody F5 with the loss of function Fc mutations L234A and L235A (hF5-LALA) (human). Kind of experiment: ELISA.

“mouse complement component C1q from normal mouse serum (from UniProt P98086;P14106;Q02105) (complex)”: the fold reduction in binding against hF5-WT at 2.8 µg/ml was found to be 5.1 fold.

The values above are taken from paper PMC10766394.
